Article PMC7736783 (Nucleic Acids Research, 2020)

Legend:
[1] = target: the molecule itself; assay: SEC-MALS; peak fraction of the gel filtration-pure HDAC1:MTA1:MBD2 complex re-run on Superose 6 with refractive index and MALS detectors
MBD2 (residues 145–411) = target: T1, MBD2 (residues 145–411) (UniProt Q9UBB5 145-411); assay: co-IP; HEK293F cells co-transfected with His10-Flag3-MTA1 construct, HDAC1 and MBD2; clarified lysate on FLAG resin 30 min, washes in 50 mM Tris-HCl pH 7.5, 100 mM potassium acetate, 5% glycerol, RNase A, elution with TEV protease; SDS-PAGE; DNA ratios 1:1:1 and 1:1:4; details: partners not purified
T1 construct: also called untagged MBD2; source: HEK293F, co-transfected, in lysate; co-purified (FLAG resin, TEV protease, Superose 6)
T1 sequence (Q9UBB5 145-411): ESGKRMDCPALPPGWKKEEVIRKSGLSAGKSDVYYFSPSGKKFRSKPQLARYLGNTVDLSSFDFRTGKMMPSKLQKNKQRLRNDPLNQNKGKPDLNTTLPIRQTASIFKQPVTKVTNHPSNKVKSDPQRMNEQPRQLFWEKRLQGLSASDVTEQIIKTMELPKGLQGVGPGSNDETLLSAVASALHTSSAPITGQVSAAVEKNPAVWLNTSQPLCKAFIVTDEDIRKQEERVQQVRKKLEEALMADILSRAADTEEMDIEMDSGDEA

HDAC1 (residues 1–482) [2] = target: T2, HDAC1 (residues 1–482) (UniProt Q13547 1-482); assay: as above; details: partners not purified
T2 construct: Two copies stand in the HDAC1:MTA1 dimer complex; also called histone deacetylase 1; source: HEK293F, co-transfected, in lysate; co-purified (FLAG resin, TEV protease, Superose 6)
T2 sequence (Q13547 whole entry, the tested form may be a part): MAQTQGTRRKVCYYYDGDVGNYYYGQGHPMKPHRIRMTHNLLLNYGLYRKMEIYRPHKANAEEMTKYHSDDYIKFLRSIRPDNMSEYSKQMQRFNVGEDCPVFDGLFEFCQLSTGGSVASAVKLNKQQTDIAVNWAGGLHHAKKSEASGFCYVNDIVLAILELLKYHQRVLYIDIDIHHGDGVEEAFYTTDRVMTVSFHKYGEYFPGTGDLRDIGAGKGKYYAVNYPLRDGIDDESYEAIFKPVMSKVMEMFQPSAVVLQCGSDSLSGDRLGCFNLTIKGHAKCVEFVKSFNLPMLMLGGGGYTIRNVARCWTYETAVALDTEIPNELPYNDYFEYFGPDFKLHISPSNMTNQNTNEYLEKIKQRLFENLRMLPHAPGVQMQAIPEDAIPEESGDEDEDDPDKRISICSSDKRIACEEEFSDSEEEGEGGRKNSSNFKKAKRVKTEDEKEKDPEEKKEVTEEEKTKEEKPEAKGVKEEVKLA

[3] = target: T3, Strep-MBD2 (residues 114–411) (UniProt Q9UBB5 114-411); assay: as above; details: partners not purified
T3 construct: MBD2, residues 114–411; source: HEK293F, co-transfected, in lysate; co-purified (FLAG resin, TEV protease, Superose 6)
T3 sequence (Q9UBB5 114-411): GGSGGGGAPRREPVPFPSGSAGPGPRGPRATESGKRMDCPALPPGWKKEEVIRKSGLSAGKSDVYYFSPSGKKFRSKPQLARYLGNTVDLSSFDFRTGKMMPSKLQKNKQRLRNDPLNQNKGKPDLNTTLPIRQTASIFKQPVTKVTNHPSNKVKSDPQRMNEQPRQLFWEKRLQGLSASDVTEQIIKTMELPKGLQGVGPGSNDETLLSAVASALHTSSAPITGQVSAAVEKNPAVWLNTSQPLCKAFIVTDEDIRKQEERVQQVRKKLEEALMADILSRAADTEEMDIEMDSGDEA

[4] = target: the molecule itself; assay: SEC; FLAG-purified, TEV-eluted co-expressed complex run on a Superose 6 column; fractions on SDS-PAGE
[5] = target: the molecule itself; assay: cryo-EM structure; co-expressed complexes purified by gel filtration, on graphene oxide grids; maps of 6.1, 4.5 and 19 Å with known structures docked as rigid bodies
HDAC1 (residues 1–482) [6] = target: T2, HDAC1 (residues 1–482); assay: as above; details: both partners purified

B1: MTA1 ELM2-SANT domain (residues 162–354) (domain or fragment, UniProt Q13330 162-354, looked up)
chain: ADKGEIRVGNRYQADITDLLKEGEEDGRDQSRLETQVWEAHNPLTDKQIDQFLVVARSVGTFARALDCSSSVRQPSLHMSAAAASRDITLFHAMDTLHKNIYDISKAISALVPQGGPVLCRDEMEEWSASEANLFEEALEKYGKDFTDIQQDFLPWKSLTSIIEYYYMWKTTDRYVQQKRLKAAEAESKLKQV
notes: The tag held the complex on the FLAG resin; it was cleaved off by TEV protease before gel filtration, SEC-MALS, the Strep-Tactin step and cryo-EM; also called MTA1 wildtype; source: HEK293F, co-transfected, in lysate; co-purified (FLAG resin, TEV protease, Superose 6); not shown: His10-Flag3, N-terminal, kept
For B1, the “stoichiometry N” value [1] was 2, the binding result (MBD2 (residues 145–411)) was “binds” and the binding result (HDAC1 (residues 1–482) [2]) was “binds”. B1: binds [3].

B2: MTA1-Δ12 (MTA1 162–354 with part of ELM2 helix 2 deleted) (domain or fragment, UniProt Q13330 162-354, looked up)
chain: ADKGEIRVGNRYQADITDLLKEGEEDGRDQSRLETQVWEAHNPLTDKQIDQFLVVARSVGTFARALDCSSAASRDITLFHAMDTLHKNIYDISKAISALVPQGGPVLCRDEMEEWSASEANLFEEALEKYGKDFTDIQQDFLPWKSLTSIIEYYYMWKTTDRYVQQKRLKAAEAESKLKQV
notes: Tag cleaved off by TEV protease before the gel filtration; Runs as a dimeric and a monomeric species on Superose 6; source: HEK293F, co-transfected, in lysate; co-purified (FLAG resin, TEV protease, Superose 6); not shown: His10-Flag3, N-terminal, kept
B2: binds [4]; binds (MBD2 (residues 145–411)); binds (HDAC1 (residues 1–482) [2]).

B3: MTA1 BAH-ELM2-SANT-ZnF (residues 1–453) (domain or fragment, UniProt Q13330 1-453, looked up)
chain: MAANMYRVGDYVYFENSSSNPYLIRRIEELNKTANGNVEAKVVCFYRRRDISSTLIALADKHATLSVCYKAGPGADNGEEGEIEEEMENPEMVDLPEKLKHQLRHRELFLSRQLESLPATHIRGKCSVTLLNETESLKSYLEREDFFFYSLVYDPQQKTLLADKGEIRVGNRYQADITDLLKEGEEDGRDQSRLETQVWEAHNPLTDKQIDQFLVVARSVGTFARALDCSSSVRQPSLHMSAAAASRDITLFHAMDTLHKNIYDISKAISALVPQGGPVLCRDEMEEWSASEANLFEEALEKYGKDFTDIQQDFLPWKSLTSIIEYYYMWKTTDRYVQQKRLKAAEAESKLKQVYIPNYNKPNPNQISVNNVKAGVVNGTGAPGQSPGAGRACESCYTTQSYQWYSWGPPNMQCRLCASCWTYWKKYGGLKMPTRLDGERPGPNRSNMSPHGL
notes: MTA1, BAH, ELM2, SANT and GATA zinc finger domains, residues 1–453; also called extended MTA1 construct; source: HEK293F, co-transfected; co-purified (FLAG resin, TEV protease, Superose 6); not shown: His10-Flag3, N-terminal, cleaved
B3: binds [5]; binds (HDAC1 (residues 1–482) [6]).
